According to the RNAGym collection of RNA variant scans (doi:10.1073/pnas.2313332121):
This sample holds only a part of the variants without activity.

B1: TPR 5TU (parent)
chain: GGAUCUUCUCGAUCUAACAAAAAAGACAAAUCUGCCACAAAGCUUGAGAGCAUCUUCGGAUGCAGAGGCGGCAGCCUUCGGUGGCGCGAUAGCGCCAACGUUCUCAACUAUGACACGCAAAACGCGUGCUCCGUUGAAUGGAGUUUAUCAUG

Variants of: B1
Assay: polymerase ribozyme fitness, log enrichment relative to wild type (log ratio); higher = more active; in vitro selection for triplet polymerase activity
Procedure, shortened: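 Mutant libraries for each subunit of a heterodimeric triplet polymerase ribozyme were made by PCR and then transcribed. Each library underwent one round of in vitro selection in triplicate: annealing with a biotinylated primer, the partner subunit and triplets, frozen incubation at −7 °C, gel excision of extended constructs, streptavidin-bead capture and RT-PCR. Input and output libraries were Illumina-sequenced, and only genotypes with ≥10 input reads and ≥1 read per output were kept. Fitness is the logarithm, base 2, of genotype enrichment over wild-type enrichment, computed from inverse-variance-weighted replicate averages.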

Variant | polymerase ribozyme fitness (log ratio)
A22G G88A C96U | ≤ -4.2
A22G G70U C118U | -3.77
A22C C27A U56A C85U C93A C99G A138U | ≤ -4.2
A22U A41U A60U A106U | -4.16
A22C U55A A97G G143C | -3.02
A22U A28U C57U U77G C85G G92U | ≤ -4.2
A22U A39U C57U G59A U101G U148C A150C | ≤ -4.2
A22G C54U C85U C116G | 1.12
A22G C93A | -1.55
A22G C93U | -0.637
A22U A39U A41G A52C G83U G94A G152C | -4.02
A22G G86C | -1.67
A22C C87U | -0.775
A22G G59A A60C C85A G94A C105U G126A | -4.1
A22C C76A A89G C95G | -4.19
A22G C36G G81U A89C A97C C116A | ≤ -4.2
A22C C27U A52C | -2.64
A22C C69U C93A U144A | -3.99
A22G A29U U77C C85G C95U C103U C114G C125U | ≤ -4.2
A22C C57A A106G G141C | -0.358
A22U A41U | 0.0369
A22U A37G A41G G48C G94U | ≤ -4.2
A22G A30U C36G G83C U146G | ≤ -4.2
A22U A30G G46C G50C A52C U55G C72U U82A C87A G88C U90A C99U | ≤ -4.2

Variant | polymerase ribozyme fitness (log ratio)
A22C C69A G80C C85U A89U A142G | ≤ -4.2
A22U A30U C32A U78G G88A G117U U139G | ≤ -4.2
A22G A28C U33G C93A G94C C95U A121U | ≤ -4.2
A22U A49G C54U C85U | -0.721
A22G A91U C95U U109C A137U | ≤ -4.2
A22C A137G | -2.58
A22G U55G C57U G84U C85A | -0.696
A22G C72G C87U C93A C99A | ≤ -4.2
A22G U55A A89C | -0.257
A22G C108G C123G A150G | ≤ -4.2
A22G C54U G58A G59A C103G | -1.91
A22G C54U U56A C76U G94C U145A | -0.624
A22C U61C G80A A119U C125A | -2.69
A22G A113C | -2.12
A22G A24U U55A C75G C76A C95G G124U G136U | ≤ -4.2
A22G C36G G92A A137G | ≤ -4.2
A22C C27G C76U C96G G140U | ≤ -4.2
A22G C85U C95G U135G | -3.76
A22C A115C C129G | ≤ -4.2
A22U A40U G42C C75A U90G | ≤ -4.2
A22U A52G A91C U135G | ≤ -4.2
A22U A23G G50C G74C | ≤ -4.2
A22U A39U A40C A66C C105U | ≤ -4.2
A22U A97G | 0.0508

Variant | polymerase ribozyme fitness (log ratio)
A22G G83C A98U C114U | -3.19
A22C C38U G81U C87G U144A | ≤ -4.2
A22G U130A | -1.59
A22C G59C G83A A89C | -1.16
A22G C27A A29G C38U G50C C72U G84A C118A | ≤ -4.2
A22U A29G A150G | ≤ -4.2
A22G A41C G50A C95U U101G | -1.78
A22U A49C C69G G70C U101A | ≤ -4.2
A22G G83A A91U G100U | ≤ -4.2
A22U A97G A122G | 0.332
A22U A26C U45A G48U U82G C87G C129G | ≤ -4.2
A22G U33C C35U A66C | ≤ -4.2
A22C C27U U44A A47C U82C C95U A142C | ≤ -4.2
A22C C85U | -0.656
A22C C85A | -1.08
A22G C85U | -0.836
A22G C85G | -2.32
A22C U144G | 0.903
A22G C36U C87U | -3.06
A22C G46C G83C | -3.01
A22C U53A C57U G100A A119G A142C G152A | ≤ -4.2
A22G C132U | -0.512
A22G C132G | -3.69
A22C C54U G84U U104G C114G G133U | ≤ -4.2

Variant | polymerase ribozyme fitness (log ratio)
A22U A37C G83C C114G | -3.92
A22C G58C G70U U134C | -3.68
A22C G92C | -1.73
A22U A47U C96U U148A | -4.14
A22C C38U G58U A60C C85A C87U G133A G140U | ≤ -4.2
A22G G58A A120G C123A C129G | -3.06
A22U A49U | -0.913
A22G A41G A120G G141U | 1.45
A22G C57A G59C A60C | -2.03
A22U A47C C54G G58U | -0.551
A22C G50U G67U G74U G92C C149G | ≤ -4.2
A22G A39C U56A G80U | ≤ -4.2
A22C U55G G67A U78A C93G C99A C149G | ≤ -4.2
A22C U53A U56A A73G | -1.97
A22U A23G G50A G86A C116G U130G C131G | ≤ -4.2
A22G A40C U139G | 0.649
A22C U45A | -2.58
A22U A24U G58C A89U G143C | -2.7
A22C U33G G50C U78A C87A G126A U135A U144G | -3.83
A22G G50U U56G G58U C76U A122G | -4.16
A22G A52G G128C | -3.48
A22U A40G G84A A119G | -2.75
A22G G42C A52C G58A G68U C87G A142C | ≤ -4.2
A22G A39G U61A G88C A121C U146G | ≤ -4.2

Variant | polymerase ribozyme fitness (log ratio)
A22C G50A C63A C69G A89G U127G G141U A142U | ≤ -4.2
A22C G25A C51U A66C C85G C93U C116A | ≤ -4.2
A22G C32U A37G A41C G71A C95U C96G U139C | ≤ -4.2
A22C C35A U55A C57U G86U A119U | ≤ -4.2
A22U A28G | -3.35
A22C G34C U55G A91C G92U | ≤ -4.2
A22G A23U C35A C75A C95G | ≤ -4.2
A22U A26C G62C C87A C116G A147U | ≤ -4.2
A22G U33G | -3.24
A22G C108U | -4.08
A22U A47U A49G G133C A142U | ≤ -4.2
A22U A28G G80C C99U C108A G140C | ≤ -4.2
A22G A52U G84A C123A | -2.11
A22G G59A | -0.246
A22G A106G A122C G124U | -0.81
A22U A66C C85G | ≤ -4.2
A22C C75G G88U A91G A110G C116A G136A | ≤ -4.2
A22C C27U G50C G80U U144G | ≤ -4.2
A22U A30C G81A C116G | -3.8
A22C G141U | 1.81
A22G A41C G62U C93A C95U C105A G112U C123G U134C G140A G141U | ≤ -4.2
A22U A41G C93U A107U C108U C129U G133U A142C | ≤ -4.2
A22G C36A G48A C95G G140C | ≤ -4.2
A22G G58C A119U A122U | 0.574

Variant | polymerase ribozyme fitness (log ratio)
A22C G50A U55G U77C G94A | -4.04
A22U A26G A49U U102C A138G U144A | ≤ -4.2
A22C U61A G88A A107C A110C C123G G140A | ≤ -4.2
A22C U44A C87U C103U | ≤ -4.2
A22C U55G A60G U101A C118G | -0.937
A22G A24U C63G | 2.39
A22U A26G A28C A37U U56A C96U A98U | ≤ -4.2
A22U A28U U45G G50U C103G | ≤ -4.2
A22U A37G A49C G62U C75G C76A G81U C85G G128C | ≤ -4.2
A22U A30G G46C G50C A52C U55G G83A G94A | ≤ -4.2
A22G C76U | 0.868
A22C C51U G84U | -2.78
A22G C96U C114U A115U | ≤ -4.2
A22G A29U G50A U56G C87U C118U | ≤ -4.2
A22G C72A G86C C87A A110U U127C C132A U146G | ≤ -4.2
A22G G84A A91C C103G U104G | ≤ -4.2
A22C C114A | -3.5
A22U A115C | -0.374
A22C C85G U109A | -3.43
A22U A29G G70A | ≤ -4.2
A22G A110G | -3.28
A22C U53G G94A A119G | -1.81
A22G A52U C85U U109G | -3.97
A22C U33C G88A A97C C131G | ≤ -4.2

Variant | polymerase ribozyme fitness (log ratio)
A22U A52C G65A C132G G140U | -3.17
A22U A47U U53G U55A C57U G68A G86C C99U A138C U148G | ≤ -4.2
A22C C43U C51U C76A C93A C125G | ≤ -4.2
A22G C85G A150G | -3.09
A22C U78C A98G U102G U151G | ≤ -4.2
A22G A40G A52C C75U C99A A107G C108U U134A | ≤ -4.2
A22C C63U G67C G84U A98C G128C U144A U151A | ≤ -4.2
A22C C69G G81C | -1.85
A22G C51U U78G C95U A107G U146C | ≤ -4.2
A22G A40G A41C C57U A107U A120U | ≤ -4.2
A22U A41G G81A C87U C99U A119G G152A | -2.3
A22C U56A C57G G86U A142G | -3.37
A22G U31G C54U C96G A115G C123G A137C | ≤ -4.2
A22U A73C G92U A110G U111C G141C | ≤ -4.2
A22C G84A G136C C149A | ≤ -4.2
A22G G124A | 0.539
A22G U31C U44A C95G A150G | ≤ -4.2
A22G G83A C105A | -3.83
A22C C38U C69U C85U | -1.31
A22G A28G A52U G80A C93G U101C A113U G140U | ≤ -4.2
A22G C27U A47U U56G C57G U77A C93A G143A | ≤ -4.2
A22C C38A U44G C75A G84A G117A U135A U151G | ≤ -4.2
A22C G92C U101G C108A A120U | -4.07
